Where no end group is shown, it is not given here. [ ]: non-standard residue; d: D form.
Target: T1, amyloid beta peptide (Homo sapiens, UniProt P05067)
T1 construct: tested for the recognition of both the D3 peptide and the amyloid beta peptide in a standard ELISA
Assay: Immunization of mice with D-peptides
Type: in vivo
Conditions: D3 covalently bonded to KLH, booster injections
Method: Mice were immunized with D-peptides. Use was made of the D3 peptide and also a retro-inverse peptide of the amyloid beta peptide (riAbeta1-16; retro-inverso-Abeta(1-16)). After multiple booster injections (booster effect), fusion to generate monoclonal antibodies was carried out according to standard methods. It was possible to isolate monoclonal antibodies which bind to D3, riAbetal-16, and to the amyloid beta peptide. The immunization with the mentioned D-peptides thus leads to a protective immune response against the amyloid beta peptide. D3 was covalently bonded (crosslinking) to KLH (keyhole limpet hemocyanin) and immunized mice with standard procedures. These were then fused with mouse myeloma cells according to standard protocols. The cell culture supernatant of the resulting hybridoma cells were then tested for the recognition of both the D3 peptide and the amyloid beta peptide in a standard ELISA.

T1 sequence (P05067 672-713 limits assumed): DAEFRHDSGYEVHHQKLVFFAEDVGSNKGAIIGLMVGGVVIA

For “rprtr lhthr nr ([dR][dP][dR][dT][dR][dL][dH][dT][dH][dR][dN][dR]; also: conjugated to KLH) [D3, D-peptide used as immunogen, covalently bonded to KLH]”, the “antibody response against the amyloid beta peptide after immunization” value was “results in an antibody response against the amyloid beta peptide”.

Source: US9051364B2, “Composition for producing anti-amyloid beta peptide antibodies with D-peptides” (FORSCHUNGSZENTRUM JUELICH GMBH, priority 2008, dated 2015)
